# Measurements reported in patent US20150344540A1, “NOVEL GLP-1 RECEPTOR AGONISTS WITH CHOLESTEROL EFFLUX ACTIVITY” (NOVO NORDISK A/S, priority 2012, published 2015).
# Where no end group is shown, it is not given here. [ ]: non-standard residue; d: D form. Aib = CC(C)(N)C(=O)O
# B1: [Asn14,Met16,Thr17,Asn18,Glu23,Val25,Glu34,Lys35,Gly36,Lys37]-GLP-1-(7-37)-peptidyl-Glu-Phe-Leu amide (peptide)
# peptide: HAEGTFTNDMTNYLEGEAVKEFIAWLVEKGKEFL-NH2
# B2: [Aib8,Glu23,Val25,Leu27,Glu34,Lys35,Aib36,Lys37]-GLP-1-(7-37)-peptidyl-Glu-Phe-Leu amide (peptide)
# peptide: H[Aib]EGTFTSDVSSYLEGEAVKLFIAWLVEK[Aib]KEFL-NH2
# modifications: N-terminus assumed
# SMILES: CC[C@H](C)[C@H](NC(=O)[C@H](Cc1ccccc1)NC(=O)[C@H](CC(C)C)NC(=O)[C@H](CCCCN)NC(=O)[C@@H](NC(=O)[C@H](C)NC(=O)[C@H](CCC(=O)O)NC(=O)CNC(=O)[C@H](CCC(=O)O)NC(=O)[C@H](CC(C)C)NC(=O)[C@H](Cc1ccc(O)cc1)NC(=O)[C@H](CO)NC(=O)[C@H](CO)NC(=O)[C@@H](NC(=O)[C@H](CC(=O)O)NC(=O)[C@H](CO)NC(=O)[C@@H](NC(=O)[C@H](Cc1ccccc1)NC(=O)[C@@H](NC(=O)CNC(=O)[C@H](CCC(=O)O)NC(=O)C(C)(C)NC(=O)[C@@H](N)Cc1c[nH]cn1)[C@@H](C)O)[C@@H](C)O)C(C)C)C(C)C)C(=O)N[C@@H](C)C(=O)N[C@@H](Cc1c[nH]c2ccccc12)C(=O)N[C@@H](CC(C)C)C(=O)N[C@H](C(=O)N[C@@H](CCC(=O)O)C(=O)N[C@@H](CCCCN)C(=O)NC(C)(C)C(=O)N[C@@H](CCCCN)C(=O)N[C@@H](CCC(=O)O)C(=O)N[C@@H](Cc1ccccc1)C(=O)N[C@@H](CC(C)C)C(N)=O)C(C)C
# B3: [Aib8,Glu23,Val25,Glu34,Lys35,Leu36,Lys37]-GLP-1-(7-37)-peptidyl-Glu-Leu-Val amide (peptide)
# peptide: H[Aib]EGTFTSDVSSYLEGEAVKEFIAWLVEKLKELV-NH2
# modifications: N-terminus assumed
# SMILES: CC[C@H](C)[C@H](NC(=O)[C@H](Cc1ccccc1)NC(=O)[C@H](CCC(=O)O)NC(=O)[C@H](CCCCN)NC(=O)[C@@H](NC(=O)[C@H](C)NC(=O)[C@H](CCC(=O)O)NC(=O)CNC(=O)[C@H](CCC(=O)O)NC(=O)[C@H](CC(C)C)NC(=O)[C@H](Cc1ccc(O)cc1)NC(=O)[C@H](CO)NC(=O)[C@H](CO)NC(=O)[C@@H](NC(=O)[C@H](CC(=O)O)NC(=O)[C@H](CO)NC(=O)[C@@H](NC(=O)[C@H](Cc1ccccc1)NC(=O)[C@@H](NC(=O)CNC(=O)[C@H](CCC(=O)O)NC(=O)C(C)(C)NC(=O)[C@@H](N)Cc1c[nH]cn1)[C@@H](C)O)[C@@H](C)O)C(C)C)C(C)C)C(=O)N[C@@H](C)C(=O)N[C@@H](Cc1c[nH]c2ccccc12)C(=O)N[C@@H](CC(C)C)C(=O)N[C@H](C(=O)N[C@@H](CCC(=O)O)C(=O)N[C@@H](CCCCN)C(=O)N[C@@H](CC(C)C)C(=O)N[C@@H](CCCCN)C(=O)N[C@@H](CCC(=O)O)C(=O)N[C@@H](CC(C)C)C(=O)N[C@H](C(N)=O)C(C)C)C(C)C
# B4: [Aib8,Trp23,Val25,Glu34,Lys35,Aib36,Lys37]-GLP-1-(7-37)-peptidyl-Glu-Phe-Leu amide (peptide)
# peptide: H[Aib]EGTFTSDVSSYLEGWAVKEFIAWLVEK[Aib]KEFL-NH2
# modifications: N-terminus assumed
# SMILES: CC[C@H](C)[C@H](NC(=O)[C@H](Cc1ccccc1)NC(=O)[C@H](CCC(=O)O)NC(=O)[C@H](CCCCN)NC(=O)[C@@H](NC(=O)[C@H](C)NC(=O)[C@H](Cc1c[nH]c2ccccc12)NC(=O)CNC(=O)[C@H](CCC(=O)O)NC(=O)[C@H](CC(C)C)NC(=O)[C@H](Cc1ccc(O)cc1)NC(=O)[C@H](CO)NC(=O)[C@H](CO)NC(=O)[C@@H](NC(=O)[C@H](CC(=O)O)NC(=O)[C@H](CO)NC(=O)[C@@H](NC(=O)[C@H](Cc1ccccc1)NC(=O)[C@@H](NC(=O)CNC(=O)[C@H](CCC(=O)O)NC(=O)C(C)(C)NC(=O)[C@@H](N)Cc1c[nH]cn1)[C@@H](C)O)[C@@H](C)O)C(C)C)C(C)C)C(=O)N[C@@H](C)C(=O)N[C@@H](Cc1c[nH]c2ccccc12)C(=O)N[C@@H](CC(C)C)C(=O)N[C@H](C(=O)N[C@@H](CCC(=O)O)C(=O)N[C@@H](CCCCN)C(=O)NC(C)(C)C(=O)N[C@@H](CCCCN)C(=O)N[C@@H](CCC(=O)O)C(=O)N[C@@H](Cc1ccccc1)C(=O)N[C@@H](CC(C)C)C(N)=O)C(C)C
# Target: human GLP-1 receptor (human, UniProt P43220)
# Experiment: cell-based or functional assay
Binder,"CRE luciferase EC50, 0% HSA [pM]","CRE luciferase EC50, 1% HSA [pM]"
B1,79,28
B2,269,104
B3,155,82
B4,763,296
